Source: patent publication US20070129319

Experiments:
[1] = tested on: ubiquitin-Met-beta-galactosidase fusion protein
[2] = molecular target: ubiquitin-Met-beta-galactosidase fusion protein; remark: listed apart in the source

Molecule	cleavage of ubiquitin from the ubiquitin-Met-beta-galactosidase fusion protein (immunoblot with anti-beta-galactosidase) [1]	cleavage of the Ub-Met-beta-gal fusion [2]
GST-DUB-3 fusion protein (pGEX-DUB-3)	DUB-3 displayed deubiquitinating activity at least equivalent to that of DUB-1	
GST-DUB-3C89S fusion protein (pGEX-DUB-3C89S)	this activity was ablated by mutating the cysteine residue (C89S) conserved within the active site	
GST-DUB-1 fusion protein (pGEX-DUB-1) (protein) MVVALSFPEADPALSSPDAPELHQDEAQVVEELTVNGKHSLSWESPQGPGCGLQNTGNSCYLNAALQCLTHTPPLADYMLSQEHSQTCCSPEGCKLCAMEALVTQSLLHSHSGDVMKPSHILTSAFHKHQQEDAHEFLMFTLETMHESCLQVHRQSKPTSEDSSPIHDIFGGWWRSQIKCLLCQGTSDTYDRFLDIPLDISSAQSVKQALWDTEKSEELCGDNAYYCGKCRQKMPASKTLHVHIAPKVLMVVLNRFSAFTGNKLDRKVSYPEFLDLKPYLSEPTGGPLPYALYAVLVHDGATSHSGHYFCCVKAGHGKWYKMDDTKVTRCDVTSVLNENAYVLFYVQQANLKQVSIDMPEGRINEVLDPEYQLKKSRRKKHKKKSPFTEDLGEPCENRDKRAIKETSLGKGKVLQEVNHKKAGQKHGNTKLMPQKQNHQKAGQNLRNTEVELDLPADAIVIHQPRSTANWGRDSPDKENQPLHNADRLLTSQGPVNTWQLCRQEGRRRSKKGQNKNKQGQRLLLVC		Deubiquitinating activity was demonstrated for both DUB-1 and DUB-3 fusion proteins by the cleavage of the Ub-Met-β-gal fusion
GST-DUB-1C60S fusion protein (pGEX-DUB-1 (C60)) (protein) MVVALSFPEADPALSSPDAPELHQDEAQVVEELTVNGKHSLSWESPQGPGCGLQNTGNSSYLNAALQCLTHTPPLADYMLSQEHSQTCCSPEGCKLCAMEALVTQSLLHSHSGDVMKPSHILTSAFHKHQQEDAHEFLMFTLETMHESCLQVHRQSKPTSEDSSPIHDIFGGWWRSQIKCLLCQGTSDTYDRFLDIPLDISSAQSVKQALWDTEKSEELCGDNAYYCGKCRQKMPASKTLHVHIAPKVLMVVLNRFSAFTGNKLDRKVSYPEFLDLKPYLSEPTGGPLPYALYAVLVHDGATSHSGHYFCCVKAGHGKWYKMDDTKVTRCDVTSVLNENAYVLFYVQQANLKQVSIDMPEGRINEVLDPEYQLKKSRRKKHKKKSPFTEDLGEPCENRDKRAIKETSLGKGKVLQEVNHKKAGQKHGNTKLMPQKQNHQKAGQNLRNTEVELDLPADAIVIHQPRSTANWGRDSPDKENQPLHNADRLLTSQGPVNTWQLCRQEGRRRSKKGQNKNKQGQRLLLVC		DUB-1C60S (lane 3) and DUB-3C89S (lane 5) are catalytically inactive
